{
  "source": "the supplement of paper PMC7125110",
  "parents": {"B1": {"name": "glmS ribozyme (parent)", "chain": "AUAAAAGCGCCAGAACUACAGAAAUGUAGUUGACGAGGAGGAGGUUUAUCGAAUUUUCGGCGGAUGCCUCCAAA"}},
  "note": "± gives the standard error. Fewer inactive variants are shown than the library holds.",
  "data": [
    {"variants_of": "B1", "experiment": "self-cleavage kobs at 10000 uM GlcN6P; higher = faster cleavage; RNA array", "settings": "with glucosamine-6-phosphate", "summary_of_the_method": "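Using a hybridised Cy3 probe at 37 °C, barcoded ribozyme variants transcribed in situ by E. coli RNA polymerase on sequenced MiSeq chips were monitored across tiles imaged over ~14 h. The flow contained glucosamine-6-phosphate from 40 μM to 10 mM in HEPES/KCl/Mg(OAc)2 buffer. Signals were normalised to baseline and to non-cleaving reference variants before per-tile medians were fit to one- or two-exponential decays to yield kobs. Weighted Michaelis–Menten fits across concentrations gave kcat and KM.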", "units": {"self-cleavage kobs at 10000 uM GlcN6P": "s⁻¹"}, "values": [
      {"variant": "AUAAAAGCGCCAGAACUACAGAAAUGUAGCUGACGAGGAGGAGUUUUAUCGAAUUUUGGGCGGAUGCCUCCAAA", "note": "[U30C G44U C58G]", "self-cleavage kobs at 10000 uM GlcN6P": "< 1e-05"},
      {"variant": "AUAAAAGCGCCAGAACUACAGAAAUGUAGUUGGCGAGGAGGAGGUUUAUUGAAUUUUGGGCGGAUGCCUCUAAA", "note": "[A33G C50U C58G C71U]", "self-cleavage kobs at 10000 uM GlcN6P": "< 1e-05"},
      {"variant": "AUAAAAGCGCCGGAACUACAGAAAUGUAGUUGACGAGGAAGAGGUUUAUCGAAUCUUCGGCGGAUGCCUCCAAA", "note": "[A12G G40A U55C]", "self-cleavage kobs at 10000 uM GlcN6P": "9.22e-05 ± 2e-05"},
      {"variant": "AUAAAAGCGCCAGAGCUACAGAAAUGUAGUUGACGAGGAGGAGGUUUAUCGGAUUUUCGGCGGAUGCCUCUAAA", "note": "[A15G A52G C71U]", "self-cleavage kobs at 10000 uM GlcN6P": "0.00137 ± 0.00021"},
      {"variant": "AUAAAAGCGUCAGAACUACAGAAAUGUAGUUGACUAGGAGGGGGUUUAUCGAAUUGUCGGCGGAUGCCUCCAAA", "note": "[C10U G35U A42G U56G]", "self-cleavage kobs at 10000 uM GlcN6P": "< 1e-05"},
      {"variant": "AUAAAUGCGCCAGAACUACAGAAAUGUAGUUGACGAGGAGGAGUUUUAUCGAAUUUUCGGCGGAUGCCUCAAAA", "note": "[A6U G44U C71A]", "self-cleavage kobs at 10000 uM GlcN6P": "< 1e-05"},
      {"variant": "AUAAAAGCUCCAGAACUACAGAAAUGUAGUUGAGGAGGAGGAGGUUUAUCGAAUUUUCGGCGGAUGCCUGCAAA", "note": "[G9U C34G C70G]", "self-cleavage kobs at 10000 uM GlcN6P": "< 1e-05"},
      {"variant": "AUAAAAGCGCCAGAACUACAGAAAUGUAGUUGACGAGGAGGAGGUUAAUCGAAUUUUCGGCGGAGUCCUCCAAA", "note": "[U47A U65G G66U]", "self-cleavage kobs at 10000 uM GlcN6P": "0.00262 ± 0.00053"},
      {"variant": "AUAAAAGCGCCAGAACUACAGAAAUGUAGUAGACGAGGAGGAGGUGUAUCGAAUUUUCGGCGGAUGCCUCCAAA", "note": "[U31A U46G]", "self-cleavage kobs at 10000 uM GlcN6P": "0.00387 ± 0.0007"},
      {"variant": "AUAAAAGCGCCAGAACUACAGAAAUGUAGUUGACGAGGAGGAGGUGUAUCGAAUUUUCGGGGAAUGCCUCCAAA", "note": "[U46G C61G G63A]", "self-cleavage kobs at 10000 uM GlcN6P": "< 1e-05"},
      {"variant": "AUAAAAGCGCAAGAGCUACAGAAAUGUAGUUGACGAGGAGGAGGUUUAUCGAAUUUACGGCUGAUGCCUCCAAA", "note": "[C11A A15G U57A G62U]", "self-cleavage kobs at 10000 uM GlcN6P": "< 1e-05"},
      {"variant": "AUAAAAGCGUCGUCACUACAGAAAUGUAGUUGACGAGGAGAAGGUUUAUCGAAUUUUCGGCGGAUGCCUCCAAA", "note": "[C10U A12G G13U A14C G41A]", "self-cleavage kobs at 10000 uM GlcN6P": "< 1e-05"},
      {"variant": "AUAAAAACGCCAGAAGUACAGAAAUGUAGUUGACGAGGAGGAGGUUUAUCGUAUUUUCGGAGGAUGCCUCCAAA", "note": "[G7A C16G A52U C61A]", "self-cleavage kobs at 10000 uM GlcN6P": "< 1e-05"},
      {"variant": "AUAAAAGGGCCAGAACUACAGAAAUGUAGUUGACGAGGAGGAGGUUUAUCUAAUUUUCGGCGGAUGCCGCCAAA", "note": "[C8G G51U U69G]", "self-cleavage kobs at 10000 uM GlcN6P": "0.00122 ± 0.00049"},
      {"variant": "AUAAAAGCGCCACAACUACAGAAAUGUAGUUGACGAGGAGGAGGUUUAUCGAAUGUUGGGCGGAUGCCUCCAAA", "note": "[G13C U55G C58G]", "self-cleavage kobs at 10000 uM GlcN6P": "4.29e-05 ± 1.4e-05"},
      {"variant": "AUAAAAGCGCCAGAACUACAGAAAUGUAGUUGACGCGGAGGAGGUUUAUCGAAUUUUCGGAGGAUGCCUCCAAA", "note": "[A36C C61A]", "self-cleavage kobs at 10000 uM GlcN6P": "< 1e-05"},
      {"variant": "AUAAAAGCGCCAGAACUACAGAAAUGUAGUUCACGAGGAGGAGGUUUAUCGAAUUAUCGGCGGAUGCCUCAAAA", "note": "[G32C U56A C71A]", "self-cleavage kobs at 10000 uM GlcN6P": "3.09e-05 ± 1.5e-05"},
      {"variant": "AUAAAAGCGCCAGAACUACAGAAAUGUAGUUGACGAAGAGGAGGUUUAUCGAAAUUUCGGCGGAUUCCUCCAAA", "note": "[G37A U54A G66U]", "self-cleavage kobs at 10000 uM GlcN6P": "0.000359 ± 8.7e-05"},
      {"variant": "AUAAAAACGCCAGAACUACAGAAAUGUAGUUGACGAGGAGGAGGUUUAUCGAGUUUUCGGCGGAUGCCUCCAAA", "note": "[G7A A53G]", "self-cleavage kobs at 10000 uM GlcN6P": "3.18e-05 ± 9.4e-06"},
      {"variant": "AUAAAAGCGCCAGAACUACAGAAAUGUAUUUGACGAGGAGGAGGUUUAUCGACUUUUCGACGGAUGCCUCCAAA", "note": "[G29U A53C G60A]", "self-cleavage kobs at 10000 uM GlcN6P": "< 1e-05"},
      {"variant": "AUAAAAGCCCCAGAACUACAGAAAUGUAGUUGACGAGGUGGUGGUUUAUCGAAUUUUCGGCGGAUGCCUCCAAA", "note": "[G9C A39U A42U]", "self-cleavage kobs at 10000 uM GlcN6P": "< 1e-05"},
      {"variant": "AUAAAAGCGCCAGAACUACAGAAAUGUAGAUGUCGACGAGGAGGUUUAUCGAAUUUUCGGCGGAUGCCACCAAA", "note": "[U30A A33U G37C U69A]", "self-cleavage kobs at 10000 uM GlcN6P": "< 1e-05"},
      {"variant": "AUAAAAGCGCCAGCACUACAGAAAUGUAGUUGACGAGGAUGAGGUUUAUCGAAUUGUCGGCGGAUGCCUCCAAA", "note": "[A14C G40U U56G]", "self-cleavage kobs at 10000 uM GlcN6P": "0.00853 ± 0.0032"},
      {"variant": "AUAAAAGCGCCAGAACUACAUAAAUGUAGUUGACGAGGAGGAGGUUUAUCGGAUUUUCGGCGGAUGCCUCCAAA", "note": "[G21U A52G]", "self-cleavage kobs at 10000 uM GlcN6P": "0.00145 ± 0.0003"},
      {"variant": "AUAAAAGCGCCAGAACUACAGAAAUGUAGUUGACGAGGAGGAGGUUUAUCGAAGUUUCUGCGGAUGCCUCUAAA", "note": "[U54G G59U C71U]", "self-cleavage kobs at 10000 uM GlcN6P": "4.41e-05 ± 1.6e-05"},
      {"variant": "AUAAAAGCGCCAGAACUACAGAAAUGUAGUUGACGAGGAGGAGGUUUAUCGAAUUUUUGGUGGAUGCCUCUAAA", "note": "[C58U C61U C71U]", "self-cleavage kobs at 10000 uM GlcN6P": "< 1e-05"},
      {"variant": "AUAAAAGUGCCAGAACUACAGAAAUGUAGUUCACGCGCAGGAGGUUUAUCGAAUUUUCGGCGGAUGCCUCCAAA", "note": "[C8U G32C A36C G38C]", "self-cleavage kobs at 10000 uM GlcN6P": "< 1e-05"},
      {"variant": "AUAAAGGCGCCAGAACUACAGAAAUGUAAUUGACGAGGAGGAGGUUUAUCGAAUUUUCGCCGCAUGCCUCCAAA", "note": "[A6G G29A G60C G63C]", "self-cleavage kobs at 10000 uM GlcN6P": "< 1e-05"},
      {"variant": "AUAAAAGCGCCCGAACUACAGAAAUGUAUUUGACGAGGAGGAGGUUUAUCGAAUUUUCGGCGGAUGCCGCCAAA", "note": "[A12C G29U U69G]", "self-cleavage kobs at 10000 uM GlcN6P": "3.54e-05 ± 1.6e-05"},
      {"variant": "AUAAAUGCGCCAGAACUACAGAAAUGUAGUUGACAAGGAGGAGGUGUAUCUAAUUUUCGGAGGAUGCCUCCAAA", "note": "[A6U G35A U46G G51U C61A]", "self-cleavage kobs at 10000 uM GlcN6P": "< 1e-05"},
      {"variant": "AUAAAAGCGCCACAACUACAGAAAUGUAGUUGACGAGGAGGAGGUUUAUCGAAUUUUCGGCGGAUGUGUCCAAA", "note": "[G13C C67U C68G]", "self-cleavage kobs at 10000 uM GlcN6P": "< 1e-05"},
      {"variant": "AUAAAAGCGCCAGAAGUACAGAAAUGUAGUUGACGAGGAGGAGGUUUAUGGCAUAUUCGGCGGAUGCCUUCAAA", "note": "[C16G C50G A52C U55A C70U]", "self-cleavage kobs at 10000 uM GlcN6P": "4.88e-05 ± 1.9e-05"},
      {"variant": "AUAAAAGCGCCAGAACUACAGAAAUGUAGUUGACGAGGAUGAUGUUUAUCGAAUUUUCGGCAGAUGCCUCCAAA", "note": "[G40U G43U G62A]", "self-cleavage kobs at 10000 uM GlcN6P": "< 1e-05"},
      {"variant": "AUAAAAGCGCCAGAACUACAGAAAUGUAGUUGACCAGGAGGAGGUUUAUCUAAUUUUUGGGGGGAGCCUCCAAA", "note": "[G35C G51U C58U C61G A64G U65A]", "self-cleavage kobs at 10000 uM GlcN6P": "< 1e-05"},
      {"variant": "AUAAAAGCGCCAGAACUACAGAAAUGUAGUUGACGAGGAGGAGUUUUAUCGAAUUUUCGGCGGAUCCCUCAAAA", "note": "[G44U G66C C71A]", "self-cleavage kobs at 10000 uM GlcN6P": "< 1e-05"},
      {"variant": "AUAAAAGCGCCAGACCUACAGAAAUGUAGUUGACGAGGAGGAGAUUUAUCGAGUUUUCGGCGGAUGCCUCCAAA", "note": "[A15C G44A A53G]", "self-cleavage kobs at 10000 uM GlcN6P": "5.76e-05 ± 1.5e-05"},
      {"variant": "AUAAAAGCGCCAGCACUACAGAAAUGUAGUUGACGAGGUGGAGGUUCAUCGAAUUUUCGGCGGAUGCCUUCAAA", "note": "[A14C A39U U47C C70U]", "self-cleavage kobs at 10000 uM GlcN6P": "0.00047 ± 6.5e-05"}
    ]}
  ]
}
